Experimental data: PMC11997328, “Structural and functional characterization of the extended-diKH domain from the antiviral endoribonuclease KHNYN”

Key:
ZAP RBD [1] = target: T1, ZAP RBD (human, UniProt Q7Z2W4 1-227); experiment: BLI; BLI: 20 mM Tris pH 8.0, 50 mM NaCl, 0.5 mM TCEP, 0.01% Tween 20, 8 U/ml RNasin Plus, 25 °C; EMSA: 20 mM Tris pH 8.0, 50 mM NaCl, 0.5 mM TCEP, 5% glycerol, room; conditions: protein: recombinant; tags: N-terminal StrepII tag removed by HRV 3C protease; label: 5'-biotin
KHNYN ex-diKH [2] = target: T2, KHNYN ex-diKH (human, UniProt O15037 8-200); experiment: BLI; up to 100 uM protein; BLI: 20 mM Tris pH 8.0, 50 mM NaCl, 0.5 mM TCEP, 0.01% Tween 20, 8 U/ml RNasin Plus, 25 °C; EMSA: 20 mM Tris pH 8.0, 50 mM NaCl, 0.5 mM TCEP, 5% glycerol, room; conditions: protein: recombinant; tags: N-terminal StrepII tag removed by HRV 3C protease; label: 5'-biotin
IMP1(KH1-KH2) = IMP1(KH1-KH2) (UniProt Q9NZI8 194-369); experiment: BLI; low uM affinity; value not in material; BLI: 20 mM Tris pH 8.0, 50 mM NaCl, 0.5 mM TCEP, 0.01% Tween 20, 8 U/ml RNasin Plus, 25 °C; EMSA: 20 mM Tris pH 8.0, 50 mM NaCl, 0.5 mM TCEP, 5% glycerol, room; conditions: protein: recombinant; label: 5'-biotin
ZAP RBD [3] = target: T1, ZAP RBD; experiment: EMSA; 2 uM protein, 0.2 uM RNA; BLI: 20 mM Tris pH 8.0, 50 mM NaCl, 0.5 mM TCEP, 0.01% Tween 20, 8 U/ml RNasin Plus, 25 °C; EMSA: 20 mM Tris pH 8.0, 50 mM NaCl, 0.5 mM TCEP, 5% glycerol, room; conditions: protein: recombinant; tags: N-terminal StrepII tag removed by HRV 3C protease; label: 5'-FAM
KHNYN ex-diKH [4] = target: T2, KHNYN ex-diKH; experiment: EMSA; 20 uM protein, 0.2 uM RNA; BLI: 20 mM Tris pH 8.0, 50 mM NaCl, 0.5 mM TCEP, 0.01% Tween 20, 8 U/ml RNasin Plus, 25 °C; EMSA: 20 mM Tris pH 8.0, 50 mM NaCl, 0.5 mM TCEP, 5% glycerol, room; conditions: protein: recombinant; tags: N-terminal StrepII tag removed by HRV 3C protease; label: 5'-FAM

T2 sequence (O15037 8-200): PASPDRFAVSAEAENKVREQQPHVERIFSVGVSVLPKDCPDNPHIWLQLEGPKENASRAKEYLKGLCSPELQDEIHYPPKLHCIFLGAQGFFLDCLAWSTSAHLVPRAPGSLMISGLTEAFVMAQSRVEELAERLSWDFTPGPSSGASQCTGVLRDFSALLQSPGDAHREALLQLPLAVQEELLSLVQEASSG
T1 sequence (Q7Z2W4 1-227): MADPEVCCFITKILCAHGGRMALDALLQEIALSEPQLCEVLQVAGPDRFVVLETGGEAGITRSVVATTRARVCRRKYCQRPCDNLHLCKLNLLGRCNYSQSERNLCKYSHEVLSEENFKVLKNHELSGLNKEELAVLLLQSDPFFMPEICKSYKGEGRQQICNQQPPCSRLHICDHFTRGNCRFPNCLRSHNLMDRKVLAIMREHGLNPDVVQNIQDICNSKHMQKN
IMP1(KH1-KH2), sequence (Q9NZI8 194-369): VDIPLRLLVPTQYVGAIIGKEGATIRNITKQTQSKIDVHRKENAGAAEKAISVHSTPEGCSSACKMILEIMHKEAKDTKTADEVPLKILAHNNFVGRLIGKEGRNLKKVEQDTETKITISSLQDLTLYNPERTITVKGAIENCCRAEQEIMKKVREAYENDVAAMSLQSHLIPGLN

UAAUCGU (ssRNA) [CpG RNA (Bi-UAAUCGU)]
Kd (ZAP RBD [1]): 30 nM | binding result (KHNYN ex-diKH [2]): no binding

UUCAGGU (ssRNA) [non-CpG RNA (Bi-UUCAGGU)]
Kd (ZAP RBD [1]): 740 nM | binding result (KHNYN ex-diKH [2]): no binding

UUCUGUU (ssRNA) [CUG RNA (Bi-UUCUGUU)]
binding result (IMP1(KH1-KH2)): binds | binding result (KHNYN ex-diKH [2]): no binding

GCAACGACGACGCUAUUUUGCGCAUCAGACGCG (ssRNA) [CpG-rich 33mer]
binding result (ZAP RBD [3]): binds | binding result (KHNYN ex-diKH [4]): no binding

GCAACCACCACUCUAUUUUGUGCAUCAGAUGCU (ssRNA) [CpG-depleted 33mer]
binding result (KHNYN ex-diKH [4]): no binding

GUAACUAAUACUCUAUUUUGUUAAUCAGAUAAU (ssRNA) [AU-rich 33mer]
binding result (KHNYN ex-diKH [4]): no binding

AUAACAAAUACACUAAAAUACAAAUCAGAAAAU (ssRNA) [A-rich 33mer]
binding result (KHNYN ex-diKH [4]): no binding

CUCCUCCCUACACUCCCCUCUCCCGCCGCCCCU (ssRNA) [C-rich 33mer]
binding result (KHNYN ex-diKH [4]): no binding

GUUUCUUUUACUCUUUGUUACUUUUCAGUUAAU (ssRNA) [U-rich 33mer]
binding result (KHNYN ex-diKH [4]): no binding
